The labels stand for the following.
T1: OprM deleted of the flexible C-terminus residues 473-485 (OprMΔCter) (P. aeruginosa (PAO1 genome as template), UniProt Q51487 18-472)
T1 construct: signal peptide in the construct (forward primer begins at the ATG of the precursor); OprM of Pseudomonas aeruginosa PAO1 without its last 13 residues 473-485; PCR fragment NdeI-XmaI in pBAD33; also called OprM∆Cter; source: E. coli C43 deleted of acrB, pBAD33, purified (Ni-NTA, Superdex 200) in DDM
T1 sequence (looked up): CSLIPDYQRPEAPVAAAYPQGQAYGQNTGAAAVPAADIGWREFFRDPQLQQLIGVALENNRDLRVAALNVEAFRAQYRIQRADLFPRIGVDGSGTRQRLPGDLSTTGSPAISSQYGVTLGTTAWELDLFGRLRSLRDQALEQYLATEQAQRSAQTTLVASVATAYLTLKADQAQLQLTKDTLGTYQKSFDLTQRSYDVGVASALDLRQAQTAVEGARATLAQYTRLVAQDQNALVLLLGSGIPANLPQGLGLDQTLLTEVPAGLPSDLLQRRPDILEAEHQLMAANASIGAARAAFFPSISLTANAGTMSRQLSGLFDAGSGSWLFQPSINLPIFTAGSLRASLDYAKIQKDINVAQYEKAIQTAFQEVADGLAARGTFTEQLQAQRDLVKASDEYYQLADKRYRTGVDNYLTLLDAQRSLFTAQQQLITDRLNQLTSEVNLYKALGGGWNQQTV

B1: OprM (wild type, full-length) (natural protein)
chain: CSLIPDYQRPEAPVAAAYPQGQAYGQNTGAAAVPAADIGWREFFRDPQLQQLIGVALENNRDLRVAALNVEAFRAQYRIQRADLFPRIGVDGSGTRQRLPGDLSTTGSPAISSQYGVTLGTTAWELDLFGRLRSLRDQALEQYLATEQAQRSAQTTLVASVATAYLTLKADQAQLQLTKDTLGTYQKSFDLTQRSYDVGVASALDLRQAQTAVEGARATLAQYTRLVAQDQNALVLLLGSGIPANLPQGLGLDQTLLTEVPAGLPSDLLQRRPDILEAEHQLMAANASIGAARAAFFPSISLTANAGTMSRQLSGLFDAGSGSWLFQPSINLPIFTAGSLRASLDYAKIQKDINVAQYEKAIQTAFQEVADGLAARGTFTEQLQAQRDLVKASDEYYQLADKRYRTGVDNYLTLLDAQRSLFTAQQQLITDRLNQLTSEVNLYKALGGGWNQQTVTQQQTAKKEDPQA
notes: OprM, outer membrane factor of the MexAB-OprM efflux pump, Pseudomonas aeruginosa; wild type, 'OprM full-length'; The pure protein was reloaded on Ni-NTA for the detergent exchange, so the His tag was probably still on it; Natural OprM is a lipoprotein whose signal peptide is cut on export; also called OMF; outer-membrane factor channel; source: E. coli C43 deleted of acrB, pBAD33, purified …
B2: MexA (natural protein)
chain: CGKSEAPPPAQTPEVGIVTLEAQTVTLNTELPGRTNAFRIAEVRPQVNGIILKRLFKEGSDVKAGQQLYQIDPATYEADYQSAQANLASTQEQAQRYKLLVADQAVSKQQYADANAAYLQSKAAVEQARINLRYTKVLSPISGRIGRSAVTEGALVTNGQANAMATVQQLDPIYVDVTQPSTALLRLRRELASGQLERAGDNAAKVSLKLEDGSQYPLEGRLEFSEVSVDEGTGSVTIRAVFPNPNNELLPGMFVHAQLQEGVKQKAILAPQQGVTRDLKGQATALVVNAQNKVELRVIKADRVIGDKWLVTEGLNAGDKIITEGLQFVQPGVEVKTVPAKNVASAQKADAAPAKTDSKG
notes: MexA, periplasmic membrane fusion protein of the MexAB-OprM efflux pump, Pseudomonas aeruginosa; wild type; The pure protein was reloaded on Ni-NTA for the detergent exchange, so the His tag was probably still on it; Natural MexA is a lipoprotein whose signal peptide is cut; also called MFP; periplasmic membrane fusion protein; source: for one experiment exchanged into C12E8 on Ni-NTA

Data set [1] concerns the molecule itself. Kind of data set: SEC; Superdex 200 gel filtration in TBS (20 mM Tris-HCl pH 8, 150 mM NaCl) with 0.05% DDM, last step of the purification. For orientation: SEC sorts molecules by how far they enter the pores of the column.
Data set [2] concerns the target B2. Kind of data set: pull-down; PG of P. aeruginosa, DDM; MexA and OprM mixed at 3:1 compared with 2:1; ratio in the retained complex from relative band intensities on SDS-PAGE. As to conditions: both partners purified.
In data set [3] the target is T1, OprM deleted of the flexible C-terminus …. Kind of data set: pull-down; purified insoluble PG of P. aeruginosa PAO1 as the pelleted matrix; MexA and OprM pre-mixed 2:1 (PG:MexA:OprM 100:2:1); 20 mM Tris-HCl pH 8.0, 300 mM NaCl, 0.05% DDM; 1 h room temperature; three washes; pellet on SDS-PAGE; proteins released by lysozyme. Particulars: both partners purified.
Data set [4] addresses B1. The experiment in a line: pull-down; purified insoluble peptidoglycan (PG) of E. coli C43 as the pelleted matrix; MexA and OprM pre-mixed 2:1 (PG:MexA:OprM 100:2:1); 20 mM Tris-HCl pH 8.0, 300 mM NaCl, 0.05% DDM; 1 h room temperature; three washes; pellet on SDS-PAGE; proteins released by lysozyme. As to conditions: both partners purified.

The term stoichiometry N denotes the number of molecules, sites or subunits per partner or assembly.

For B1, the “stoichiometry N” value in data set [1] was 3; in data set [2], 2 MexA:OprM.

Regarding B2, the binding result in data set [3] and in data set [4] was “binds” throughout.

(Values after PMC8158685, “MexAB-OprM Efflux Pump Interaction with the Peptidoglycan of Escherichia coli and Pseudomonas aeruginosa” (International Journal of Molecular Sciences, 2021).)
